Stoichiometry N data for one substance are collected here from publication PMC10980018.

This assay has as its target HKU5-20s trimeric ectodomain with 2P stabilizing mutations (merbecovirus HKU5-20s (host Pipistrellus abramus)). The assay can be described thus: cryo-EM structure.

For “HKU5-20s trimeric ectodomain with 2P stabilizing mutations (domain or fragment)”, the stoichiometry N (as a rule, the number of molecules, sites or subunits per partner or assembly) worked out at 3.
